The source of these data is patent US20120088237.

Positions count from the first letter of the chain named.

Data set [1] concerns T1, BstNI (Bacillus stearothermophilus).
T1 sequence: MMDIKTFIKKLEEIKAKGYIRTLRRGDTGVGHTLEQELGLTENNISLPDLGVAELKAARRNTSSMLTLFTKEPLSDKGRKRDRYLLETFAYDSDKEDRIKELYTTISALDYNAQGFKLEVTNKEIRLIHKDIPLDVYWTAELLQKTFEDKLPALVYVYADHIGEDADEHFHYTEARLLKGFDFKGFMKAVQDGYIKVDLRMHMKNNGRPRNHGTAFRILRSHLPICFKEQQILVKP
Briefly: cleavage_in_vitro. Conditions: 5mC at inner (second) C of CCWGG (dcm); NEB1 and NEB4 0.1; NEB2 0.5; NEB3 2; 60 C 1 h, crude lysate.

Data set [2] has as its system T2, BstNI R200C R200C (Bacillus stearothermophilus).
T2 sequence: T1 sequence with R200C
The data set is described as follows: cleavage_in_vitro. Conditions: 5mC at inner (second) C of CCWGG (dcm); NEB1, NEB2 and NEB4 each 100; NEB3 10; 60 C 1 h, crude lysate.

As for “CCWGG (double strand) [dcm+ plasmid pBC4 (C5mCWGG)]”, the results for the relative cleavage in vitro (fold (dcm+/dcm- cleavage)) in data set [1] and in data set [2] were 0.1 and 100, respectively.
